Biological target: the molecule itself
Experiment: SEC; 128 µM αB crystallin alone in 20 mM tris-HCl, 160 µM MgCl2, 40 µM EGTA, pH 8.0; Biosep SEC-S4000, eluted in 20 mM tris-Cl pH 8.0 at 4°C; size from calibration proteins (apparent); subunits to polydisperse complex

B1: human αB crystallin (natural protein, UniProt P02511 1-175, looked up)
chain: MDIAIHHPWIRRPFFPFHSPSRLFDQFFGEHLLESDLFPTSTSLSPFYLRPPSFLRAPSWFDTGLSEMRLEKDRFSVNLDVKHFSPEELKVKVLGDVIEVHGKHEERQDEHGFISREFHRKYRIPADVDPLTITSSLSSDGVLTVNGPRKQVSGPERTIPITREEKPAVTAAPKK
notes: human αB crystallin, expressed from a human αB crystallin pET16b plasmid; 20 kDa on SDS-PAGE; Polydisperse complex; pET16b can add an N-terminal His tag, but purification was by anion exchange and SEC, so the protein is probably untagged (surmise); also called small heat shock protein (sHSP); source: E. coli BL21 (DE3), purified (Q Sepharose Fast Flow, Superdex 200); copies: 24
  stoichiometry N: 24 subunits
